kcat/Km, Km and kcat data for three proteins are collected here from ChEMBL document CHEMBL1143427, “Interactions of ceftobiprole with beta-lactamases from molecular classes A to D” (Antimicrob Agents Chemother, 2007).

Substrate in series [1]: CC(C)(O/N=C(\C(=O)N[C@@H]1C(=O)N2C(C(=O)[O-])=C(C[n+]3ccccc3)CS[C@H]12)c1csc(N)n1)C(=O)O
Kind of series: (§1) Ratio of Kcat to Km of Pseudomonas aeruginosa IMP1 assessed as drug hydrolysis by spectrophotometry.

Substrate in series [2]: CC1(C)S[C@@H]2[C@H](NC(=O)Cc3ccccc3)C(=O)N2[C@H]1C(=O)O
The series is described as §1.

Substrate in series [3]: CO/N=C(\C(=O)N[C@@H]1C(=O)N2C(C(=O)[O-])=C(C[N+]3(C)CCCC3)CS[C@H]12)c1csc(N)n1
Described as §1.

Substrate in series [4]: Nc1nc(/C(=N/O)C(=O)N[C@@H]2C(=O)N3C(C(=O)O)=C(/C=C4\CCN([C@@H]5CCNC5)C4=O)CS[C@H]23)ns1
The series is described as §1.

Substrate in series [5]: O=C(Cc1cccs1)N[C@@H]1C(=O)N2C(C(=O)[O-])=C(C[n+]3ccccc3)CS[C@H]12
Described as §1.

Substrate in series [6]: CC(C)(O/N=C(\C(=O)N[C@@H]1C(=O)N2C(C(=O)[O-])=C(C[n+]3ccccc3)CS[C@H]12)c1csc(N)n1)C(=O)O
Nature of the series: (§2) Activity of Klebsiella oxytoca beta-lactamase K1assessed as drug hydrolysis by spectrophotometry.

Substrate in series [7]: CC1(C)S[C@@H]2[C@H](NC(=O)Cc3ccccc3)C(=O)N2[C@H]1C(=O)O
The description is as §2.

Substrate in series [8]: CO/N=C(\C(=O)N[C@@H]1C(=O)N2C(C(=O)O)=C(COC(C)=O)CS[C@H]12)c1csc(N)n1
Described as §2.

Substrate in series [9]: CO/N=C(\C(=O)N[C@@H]1C(=O)N2C(C(=O)[O-])=C(C[N+]3(C)CCCC3)CS[C@H]12)c1csc(N)n1
The series is described as §2.

Substrate in series [10]: Nc1nc(/C(=N/O)C(=O)N[C@@H]2C(=O)N3C(C(=O)O)=C(/C=C4\CCN([C@@H]5CCNC5)C4=O)CS[C@H]23)ns1
Described as §2.

Substrate in series [11]: O=C(Cc1cccs1)N[C@@H]1C(=O)N2C(C(=O)[O-])=C(C[n+]3ccccc3)CS[C@H]12
Described as §2.

Substrate in series [12]: CC(C)(O/N=C(\C(=O)N[C@@H]1C(=O)N2C(C(=O)[O-])=C(C[n+]3ccccc3)CS[C@H]12)c1csc(N)n1)C(=O)O
Kind of series: (§3) Ratio of Kcat to Km of Klebsiella oxytoca beta-lactamase K1 assessed as drug hydrolysis by spectrophotometry.

Substrate in series [13]: CC1(C)S[C@@H]2[C@H](NC(=O)Cc3ccccc3)C(=O)N2[C@H]1C(=O)O
Described as §3.

Substrate in series [14]: CO/N=C(\C(=O)N[C@@H]1C(=O)N2C(C(=O)O)=C(COC(C)=O)CS[C@H]12)c1csc(N)n1
Described as §3.

Substrate in series [15]: CO/N=C(\C(=O)N[C@@H]1C(=O)N2C(C(=O)[O-])=C(C[N+]3(C)CCCC3)CS[C@H]12)c1csc(N)n1
Described as §3.

Substrate in series [16]: Nc1nc(/C(=N/O)C(=O)N[C@@H]2C(=O)N3C(C(=O)O)=C(/C=C4\CCN([C@@H]5CCNC5)C4=O)CS[C@H]23)ns1
The description is as §3.

Substrate in series [17]: O=C(Cc1cccs1)N[C@@H]1C(=O)N2C(C(=O)[O-])=C(C[n+]3ccccc3)CS[C@H]12
Described as §3.

Substrate in series [18]: CC(C)(O/N=C(\C(=O)N[C@@H]1C(=O)N2C(C(=O)[O-])=C(C[n+]3ccccc3)CS[C@H]12)c1csc(N)n1)C(=O)O
Kind of series: (§4) Activity of Providencia stuartii AmpC assessed as drug hydrolysis by spectrophotometry.

Substrate in series [19]: CC1(C)S[C@@H]2[C@H](NC(=O)Cc3ccccc3)C(=O)N2[C@H]1C(=O)O
The series is described as §4.

Substrate in series [20]: CO/N=C(\C(=O)N[C@@H]1C(=O)N2C(C(=O)[O-])=C(C[N+]3(C)CCCC3)CS[C@H]12)c1csc(N)n1
The series is described as §4.

Substrate in series [21]: Nc1nc(/C(=N/O)C(=O)N[C@@H]2C(=O)N3C(C(=O)O)=C(/C=C4\CCN([C@@H]5CCNC5)C4=O)CS[C@H]23)ns1
Described as §4.

Substrate in series [22]: O=C(Cc1cccs1)N[C@@H]1C(=O)N2C(C(=O)[O-])=C(C[n+]3ccccc3)CS[C@H]12
The series is described as §4.

Substrate in series [23]: CC(C)(O/N=C(\C(=O)N[C@@H]1C(=O)N2C(C(=O)[O-])=C(C[n+]3ccccc3)CS[C@H]12)c1csc(N)n1)C(=O)O
Kind of series: (§5) Ratio of Kcat to Km of Providencia stuartii AmpC assessed as drug hydrolysis by spectrophotometry.

Substrate in series [24]: CC1(C)S[C@@H]2[C@H](NC(=O)Cc3ccccc3)C(=O)N2[C@H]1C(=O)O
The series is described as §5.

Substrate in series [25]: CO/N=C(\C(=O)N[C@@H]1C(=O)N2C(C(=O)[O-])=C(C[N+]3(C)CCCC3)CS[C@H]12)c1csc(N)n1
Described as §5.

Substrate in series [26]: Nc1nc(/C(=N/O)C(=O)N[C@@H]2C(=O)N3C(C(=O)O)=C(/C=C4\CCN([C@@H]5CCNC5)C4=O)CS[C@H]23)ns1
Described as §5.

Substrate in series [27]: O=C(Cc1cccs1)N[C@@H]1C(=O)N2C(C(=O)[O-])=C(C[n+]3ccccc3)CS[C@H]12
The description is as §5.

B1: Metallo beta-lactamase (Pseudomonas aeruginosa), Q6TUJ4 (protein)
chain: YVHTSFEEVNGWGVVPKHGLVVLVNAEAYLIDTPFTAKDTEKLVTWFVERGYKIKGSISSHFHSDSTGGIEWLNSRSIPTYASELTNELLKKDGKVQATNSFSGVNYWLVKNKIEVFYPGPGHTPDNVVVWLP
In general, kcat/Km refers to the second-order rate constant that governs catalysis at low substrate concentration. In the case of B1, the kcat/Km in series [1] was 90000 M⁻¹ s⁻¹; in [2] it was 560000 M⁻¹ s⁻¹; in [3] it was 150000 M⁻¹ s⁻¹; in series [4], 740000 M⁻¹ s⁻¹; in series [5] it was 75000 M⁻¹ s⁻¹.

B2: Beta-lactamase (Klebsiella oxytoca), Q8RT60 (protein)
chain: MIKSSWRKIAMLAAAVPLLLASGALWASTDAIHQKLTDLEKRSGGRLGVALINTADNSQILYRGDERFAMCSTSKVMAAAAVLKQSESNKEVVNKRLEINAADLVVWSPITEKHLQSGMTLAELSAATLQYSDNTAMNLIIGYLGGPEKVTAFARSIGDATFRLDRTEPTLNTAIPGDERDTSTPLAMAESLRKLTLGDALGEQQRAQLVTWLKGNTTGGQSIRAGLPESWVVGDKTGAGDYGTTNDIAVIWPEDHAPLILVTYFTQPQQDAKNRKEVLAAAAKIVTEGL
By Km is commonly meant the concentration of substrate that gives half-maximal velocity. The kcat is the number of substrate molecules converted per active site and unit of time at saturation. Consider B2, for which the Km in series [6] worked out at 140 µM; in series [7], 40 µM; in series [8], 550 µM; in series [9] it was 1000 µM; in series [10] it was 32 µM; in [11], 100 µM. Further, the kcat in series [6] is 0.018 s⁻¹; in series [7], 1100 s⁻¹; in [8], 88 s⁻¹; in [9], 59 s⁻¹; in [10], 230 s⁻¹; in series [11] it was 700 s⁻¹. For the same protein, the kcat/Km in [12] was found to be 130 M⁻¹ s⁻¹; in series [13] it was 2.8e+07 M⁻¹ s⁻¹; in [14], 160000 M⁻¹ s⁻¹; in series [15], 59000 M⁻¹ s⁻¹; in series [16] it was 7.2e+06 M⁻¹ s⁻¹; in series [17], 7e+06 M⁻¹ s⁻¹.

B3: Beta-lactamase (Providencia stuartii), O69773 (protein)
chain: MDNSMKNIFRQGRLFIALSLAMTSISAFALTQQEVDDIIKPLMKQEQIPGMSVAISVNGKQAIYHYGVQSKQTQIPVSDRTLYEIGSLSKTFTATLATYAQIQGKLDFSQSVSHYLPELKGSAFDNVSVMNLATHTSGLSLFVPSDIKTNDQLMAYYQKWLPDNEVGQYRSYSNLGVGLLGIVTAKQLNMPFSQAMEKLMLPSLGLKHTYIHVPKSQEKYYAQGYNKQNQPVRLNLEILGPEAYGLKSNAKDLIRYLEINMQSIKVAKTWQEAIENTHTGVYLTDSFVQDMMWESYPWPVSLSQLLQGNRDDMALKPQKVELIKPAMAPEVRAYYNKTGSSNGFATYAIFIPEEKIAIVMLSNKWIPIPQRITATYQLLEKIER
As for B3, the Km in [18] worked out at 26 µM; in series [19] it was 14 µM; in series [20], 780 µM; in series [21], 260 µM; in series [22], 920 µM. Also, the kcat in [18] turned out to be 0.19 s⁻¹; in series [19], 3.3 s⁻¹; in series [20] it was 3 s⁻¹; in series [21] it was 0.16 s⁻¹; in series [22], 530 s⁻¹. In addition, the kcat/Km is 7300 M⁻¹ s⁻¹ in [23]; 250000 M⁻¹ s⁻¹ in series [24]; 3800 M⁻¹ s⁻¹ in [25]; 620 M⁻¹ s⁻¹ in series [26]; 580000 M⁻¹ s⁻¹ in [27].
